From patent US20250074980A1 (BRIGHAM AND WOMEN S HOSPITAL, published 2025) come the findings set out here.

Read-outs that look alike come from different tables or passages of the source.

Assay in all cases: SPR single-cycle, supernatant IgG captured
Test [1] has as its target T1, His-tagged CEACAM1 (human, UniProt P13688 35-428).
T1 construct: 45 kDa SPR analyte; also called CEACAM1-HIS; CEACAM1 analyte
T1 sequence: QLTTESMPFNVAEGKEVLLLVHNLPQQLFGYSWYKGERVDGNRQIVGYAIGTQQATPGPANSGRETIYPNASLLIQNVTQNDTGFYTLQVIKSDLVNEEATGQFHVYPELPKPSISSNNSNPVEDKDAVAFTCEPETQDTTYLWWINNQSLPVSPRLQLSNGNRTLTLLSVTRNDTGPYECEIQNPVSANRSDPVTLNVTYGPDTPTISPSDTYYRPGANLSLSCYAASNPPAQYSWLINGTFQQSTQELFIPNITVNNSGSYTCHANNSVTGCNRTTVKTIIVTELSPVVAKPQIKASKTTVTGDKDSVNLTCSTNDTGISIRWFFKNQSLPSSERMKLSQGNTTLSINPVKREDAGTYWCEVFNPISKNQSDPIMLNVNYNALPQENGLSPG
How it is done:
(§1) In order to assess the binding of the humanized, affinity matured reformatted lead IgGs, single-cycle kinetics analysis was performed on crude supernatants using a Biacore T200 running Biacore T200 Control Software V2.0.1 and Biacore T200 Evaluation Software V3.0. Antibodies were diluted in HBS-P+ to a final concentration of 0.5 μg/ml. At the start of each cycle, antibodies were loaded onto Fc2, Fc3 and Fc4 of the Protein A chip. IgGs were captured at a flow rate of 10 μl/min to give an immobilisation level (RL) of ˜100 RU (a level calculated to obtain a Rₘₐₓ of ˜50-150 RU once the analyte is bound). The surface was then allowed to stabilize. Single-cycle kinetics data was obtained with CEACAM1 as the analyte at a flow rate of 80 μl/min to minimize any potential mass transfer effects. Multiple repeats with the parent (VH1/Vκ8 S29A) antibody were performed to check the stability of the surface and analyte over the kinetic cycles. The signal from the reference channel Fc1 (no antibody) was subtracted from that of Fc2, Fc3 and Fc4 to correct for differences in non-specific binding to the reference surface. A three point, two-fold dilution range from 70 nM to 280 nM CEACAM1 without regeneration between each concentration was used. The signal from each antibody blank run (no CEACAM1) was subtracted to correct for differences in surface stability. The association phase for the three injections of increasing concentrations of CEACAM1 was monitored for 80 seconds each time and a single dissociation phase was measured for 150 seconds following the last injection of CEACAM1. Regeneration of the Protein A surface was conducted using two injections of 10 mM glycine-HCL pH 1.5 followed by a stabilization period of 250 seconds.

Test [2] has as its target T1, His-tagged CEACAM1. How it is done:
as §1
The source holds these as a separate data set.

The target in test [3] is T1, His-tagged CEACAM1. In short, it runs like this:
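His-tagged CEACAM1 served as analyte over Protein A-captured IgG in single-cycle surface plasmon resonance on a Biacore T200, performed at 25° C in HBS-P+ (pH 7.4). The IgG was taken from supernatants of transiently PEI-transfected HEK EBNA cells grown in 6-well plates and harvested 5-7 days later. Relative KD, alongside fitted Kon, koff and Kd, was referenced to the parent antibody run in the same experiment.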
The source holds these as a separate data set.

B1: 8H3_9C2 (CDR1)/CP08E05 (antibody, IgG4, V domains shown)
VH: EVQLLESGGGLVQPGGSLRLSCAASEFTFSDHAMSWVRQAPGKGLEWVATISSGGTYTYYPDSVKGRFTISRDNSKNTLYLQMNSLKAEDTAMYYCARHDFDYFPYWFAHWGQGTLVTVSS
VL: EIVLTQSPATLSLSPGERATLSCRANSAVSYMYWYQQKPGQAPRPWIYLTSNRATGVPARFSGSGSGTDYTLTISSLEPEDFAVYYCQQWTTNPPTFGQGTKLEIK
notes: IgG4 (S241P), kappa
Take B1: in the test with His-tagged CEACAM1 [1], the Kd came out at 250 nM, the koff worked out at 0.019 s⁻¹, the kon was found to be 73000 M⁻¹ s⁻¹ and the “relative KD to parent” value was 2.2.

B2: VH1/CP08E05 (antibody, IgG4, V domains shown)
VH: EVQLLESGGGLVQPGGSLRLSCAASGFIFSSHGMSWVRQAPGKGLEWVATISSGGTYTYYPDSVKGRFTISRDNSKNTLYLQMNSLKAEDTAMYYCARHDFDYDAAWFAYWGQGTLVTVSS
VL: EIVLTQSPATLSLSPGERATLSCRANSAVSYMYWYQQKPGQAPRPWIYLTSNRATGVPARFSGSGSGTDYTLTISSLEPEDFAVYYCQQWTTNPPTFGQGTKLEIK
notes: IgG4 (S241P), kappa; also called Parent VH/CP08E05
As for B2, in the test with His-tagged CEACAM1 [2], the Kd was 140 nM, the koff came to 0.034 s⁻¹, the kon is 240000 M⁻¹ s⁻¹ and the “relative KD to parent” value is 4.4. Further, in the test with His-tagged CEACAM1 [3], the Kd was 230 nM, the koff turned out to be 0.034 s⁻¹, the kon came to 150000 M⁻¹ s⁻¹ and the “relative KD to parent” value was determined as 2.4.

B3: VH1/CP08F05 (antibody, IgG4, V domains shown)
VH: EVQLLESGGGLVQPGGSLRLSCAASGFIFSSHGMSWVRQAPGKGLEWVATISSGGTYTYYPDSVKGRFTISRDNSKNTLYLQMNSLKAEDTAMYYCARHDFDYDAAWFAYWGQGTLVTVSS
VL: EIVLTQSPATLSLSPGERATLSCRANSAVSYMYWYQQKPGQAPRPWIYLTSNRATGVPARFSGSGSGTDYTLTISSLEPEDFAVYYCQQWTSNPPTFGQGTKLEIK
notes: IgG4 (S241P), kappa; also called Parent VH/CP08F05
Turning to B3, in the test with His-tagged CEACAM1 [2], the Kd was 280 nM, the off-rate constant (koff) came to 0.11 s⁻¹, the kon was 400000 M⁻¹ s⁻¹ and the “relative KD to parent” value was determined as 2.2. Also, in the test with His-tagged CEACAM1 [3], binding was put at a Kd of 280 nM, the koff amounted to 0.029 s⁻¹, the kon is 100000 M⁻¹ s⁻¹ and the “relative KD to parent” value turned out to be 2.

B4: CP09C02/Vκ8 S29A (antibody, IgG4, V domains shown)
VH: EVQLLESGGGLVQPGGSLRLSCAASEFTFSDHAMSWVRQAPGKGLEWVATISSGGTYTYYPDSVKGRFTISRDNSKNTLYLQMNSLKAEDTAMYYCARHGFDYDAAWFAYWGQGTLVTVSS
VL: EIVLTQSPATLSLSPGERATLSCRANSAVSYMYWYQQKPGQAPRPWIYLTSNRATGVPARFSGSGSGTDYTLTISSLEPEDFAVYYCQQWSSNPPTFGQGTKLEIK
notes: IgG4 (S241P), kappa
Regarding B4, in the test with His-tagged CEACAM1 [2], the Kd was found to be 88 nM, the koff was 0.017 s⁻¹, the association rate constant (kon) stood at 200000 M⁻¹ s⁻¹ and the “relative KD to parent” value was determined as 7.1. In the test with His-tagged CEACAM1 [3], the Kd was determined as 170 nM, the koff amounted to 0.019 s⁻¹, the on-rate (kon) was 110000 M⁻¹ s⁻¹ and the “relative KD to parent” value is 3.3.

B5: CP09E05/Vκ8 S29A (antibody, IgG4, V domains shown)
VH: EVQLLESGGGLVQPGGSLRLSCAASGFIFSSHGMSWVRQAPGKGLEWVATISSGGTYTYYPDSVKGRFTISRDNSKNTLYLQMNSLKAEDTAMYYCARHGFDYDAAWFAYWGQGTLVTVSS
VL: EIVLTQSPATLSLSPGERATLSCRANSAVSYMYWYQQKPGQAPRPWIYLTSNRATGVPARFSGSGSGTDYTLTISSLEPEDFAVYYCQQWSSNPPTFGQGTKLEIK
notes: IgG4 (S241P), kappa
As for B5, in the test with His-tagged CEACAM1 [2], the Kd came to 320 nM, the koff worked out at 0.037 s⁻¹, the kon was determined as 120000 M⁻¹ s⁻¹ and the “relative KD to parent” value is 1.4. Moreover, in the test with His-tagged CEACAM1 [3], binding was characterised by a dissociation constant (Kd) of 300 nM, the koff came out at 0.035 s⁻¹, the kon is 120000 M⁻¹ s⁻¹ and the “relative KD to parent” value turned out to be 1.8.

B6: VH1/CP08E01 (antibody, IgG4, V domains shown)
VH: EVQLLESGGGLVQPGGSLRLSCAASGFIFSSHGMSWVRQAPGKGLEWVATISSGGTYTYYPDSVKGRFTISRDNSKNTLYLQMNSLKAEDTAMYYCARHDFDYDAAWFAYWGQGTLVTVSS
VL: EIVLTQSPATLSLSPGERATLSCRANSAVSYMYWYQQKPGQAPRPWIYLTSNRATGVPARFSGSGSGTDYTLTISSLEPEDFAVYYCQQWTTFPPTFGQGTKLEIK
notes: IgG4 (S241P), kappa; also called Parent VH/CP08E01
For B6, in the test with His-tagged CEACAM1 [2], the Kd was found to be 170 nM, the koff is 0.054 s⁻¹, the kon stood at 330000 M⁻¹ s⁻¹ and the “relative KD to parent” value worked out at 3.7. In addition, in the test with His-tagged CEACAM1 [3], binding was characterised by a dissociation constant (Kd) of 450 nM, the koff was found to be 0.053 s⁻¹, the kon is 120000 M⁻¹ s⁻¹ and the “relative KD to parent” value was 1.2.

B7: 8H3_9C2 (CDR1)/Vκ8 S29A (antibody, IgG4, V domains shown)
VH: EVQLLESGGGLVQPGGSLRLSCAASEFTFSDHAMSWVRQAPGKGLEWVATISSGGTYTYYPDSVKGRFTISRDNSKNTLYLQMNSLKAEDTAMYYCARHDFDYFPYWFAHWGQGTLVTVSS
VL: EIVLTQSPATLSLSPGERATLSCRANSAVSYMYWYQQKPGQAPRPWIYLTSNRATGVPARFSGSGSGTDYTLTISSLEPEDFAVYYCQQWSSNPPTFGQGTKLEIK
notes: IgG4 (S241P), kappa
Regarding B7, in the test with His-tagged CEACAM1 [1], binding was characterised by a dissociation constant (Kd) of 210 nM, the koff was found to be 0.018 s⁻¹, the kon came out at 88000 M⁻¹ s⁻¹ and the “relative KD to parent” value worked out at 2.7.

B8: VH1/CP08G09 (antibody, IgG4, V domains shown)
VH: EVQLLESGGGLVQPGGSLRLSCAASGFIFSSHGMSWVRQAPGKGLEWVATISSGGTYTYYPDSVKGRFTISRDNSKNTLYLQMNSLKAEDTAMYYCARHDFDYDAAWFAYWGQGTLVTVSS
VL: EIVLTQSPATLSLSPGERATLSCRANSAVSYMYWYQQKPGQAPRPWIYLTSNRATGVPARFSGSGSGTDYTLTISSLEPEDFAVYYCQQWTAFPPTFGQGTKLEIK
notes: IgG4 (S241P), kappa; also called Parent VH/CP08G09
On to B8, for which, in the test with His-tagged CEACAM1 [2], the Kd was determined as 110 nM, the koff amounted to 0.049 s⁻¹, the kon was 470000 M⁻¹ s⁻¹ and the “relative KD to parent” value was found to be 5.9. Also, in the test with His-tagged CEACAM1 [3], the Kd was found to be 480 nM, the koff came to 0.057 s⁻¹, the on-rate (kon) came to 120000 M⁻¹ s⁻¹ and the “relative KD to parent” value turned out to be 1.2.

B9: 8H3_9C2 (CDR1)/CP08F05 (antibody, IgG4, V domains shown)
VH: EVQLLESGGGLVQPGGSLRLSCAASEFTFSDHAMSWVRQAPGKGLEWVATISSGGTYTYYPDSVKGRFTISRDNSKNTLYLQMNSLKAEDTAMYYCARHDFDYFPYWFAHWGQGTLVTVSS
VL: EIVLTQSPATLSLSPGERATLSCRANSAVSYMYWYQQKPGQAPRPWIYLTSNRATGVPARFSGSGSGTDYTLTISSLEPEDFAVYYCQQWTSNPPTFGQGTKLEIK
notes: IgG4 (S241P), kappa
In the case of B9, in the test with His-tagged CEACAM1 [1], binding was characterised by a dissociation constant (Kd) of 240 nM, the koff was 0.017 s⁻¹, the kon came out at 72000 M⁻¹ s⁻¹ and the “relative KD to parent” value amounted to 2.3.

B10: VH1/CP08D02 (antibody, IgG4, V domains shown)
VH: EVQLLESGGGLVQPGGSLRLSCAASGFIFSSHGMSWVRQAPGKGLEWVATISSGGTYTYYPDSVKGRFTISRDNSKNTLYLQMNSLKAEDTAMYYCARHDFDYDAAWFAYWGQGTLVTVSS
VL: EIVLTQSPATLSLSPGERATLSCRANSAVSYMYWYQQKPGQAPRPWIYLTSNRATGVPARFSGSGSGTDYTLTISSLEPEDFAVYYCQQWTSFPPTFGQGTKLEIK
notes: IgG4 (S241P), kappa; also called Parent VH/CP08D02
Consider B10, for which, in the test with His-tagged CEACAM1 [2], the equilibrium dissociation constant (Kd) was 100 nM, the koff was 0.043 s⁻¹, the on-rate constant (kon) was found to be 430000 M⁻¹ s⁻¹ and the “relative KD to parent” value was found to be 6.2. For the same molecule, in the test with His-tagged CEACAM1 [3], the Kd came to 450 nM, the koff was determined as 0.057 s⁻¹, the kon stood at 130000 M⁻¹ s⁻¹ and the “relative KD to parent” value turned out to be 1.2.
